Data on 33 variants can be found in the Human Domainome abundance scans (Beltran et al. 2025).

± gives the uncertainty stated by the source.

B1: Homeobox protein cut-like 1, residues 548 to 629; numbered along this chain, P39880 (parent)
chain: GEEMDTAEIARQVKEQLIKHNIGQRIFGHYVLGLSQGSVSEILARPKPWNKLTVRGKEPFHKMKQFLSDEQNILALRSIQGR

This data set covers variants of B1. The data set can be described thus: abundance fitness (aPCA) (normalised: wild type 0, dead -1); higher = more abundant; growth selection in yeast, the domain comes from the species named. The conditions noted are these: Homo sapiens.
Turning to GEEMDTAEIARQVKEQLIKHNIGQRIFGHYVLGLSQGSVSTILARPKPWNKLTVRGKEPFHKMKQFLSDEQNILALRSIQGR [E41T], the abundance fitness is -0.243 ± 0.039.
Consider GEEMDTAEIARQVKEQLIKHNIGQRIFGHYVLGLSQGSVSMILARPKPWNKLTVRGKEPFHKMKQFLSDEQNILALRSIQGR [E41M], for which the abundance fitness is -0.377 ± 0.048.
Take GEEMDTAEIARQVKEQLIKHNIGQRIFGHYVLGLSQGSVSVILARPKPWNKLTVRGKEPFHKMKQFLSDEQNILALRSIQGR [E41V]: the abundance fitness is -0.433 ± 0.034.
With GEEMDTAEIARQVKEQLIKHNIGQRIFGHYVLGLSQGSVSSILARPKPWNKLTVRGKEPFHKMKQFLSDEQNILALRSIQGR [E41S], the abundance fitness was -0.265 ± 0.034.
As for GEEMDTAEIARQVKEQLIKHNIGQRIFGHYVLGLSQGSVSQILARPKPWNKLTVRGKEPFHKMKQFLSDEQNILALRSIQGR [E41Q], the figure is -0.204 ± 0.04; as for GEEMDTAEIARQVKEQLIKHNIGQRIFGHYVLGLSQGSVSRILARPKPWNKLTVRGKEPFHKMKQFLSDEQNILALRSIQGR [E41R], -0.851 ± 0.047.
As for GEEMDTAEIARQVKEQLIKHNIGQRIFGHYVLGLSQGSVSLILARPKPWNKLTVRGKEPFHKMKQFLSDEQNILALRSIQGR [E41L], the abundance fitness was -0.345 ± 0.037.
For GEEMDTAEIARQVKEQLIKHNIGQRIFGHYVLGLSQGSVSNILARPKPWNKLTVRGKEPFHKMKQFLSDEQNILALRSIQGR [E41N] the value was -0.206 ± 0.059.
For GEEMDTAEIARQVKEQLIKHNIGQRIFGHYVLGLSQGSVSYILARPKPWNKLTVRGKEPFHKMKQFLSDEQNILALRSIQGR [E41Y], the abundance fitness is -0.412 ± 0.083.
For GEEMDTAEIARQVKEQLIKHNIGQRIFGHYVLGLSQGSVSWILARPKPWNKLTVRGKEPFHKMKQFLSDEQNILALRSIQGR [E41W] the value was -0.522 ± 0.041; for GEEMDTAEIARQVKEQLIKHNIGQRIFGHYVLGLSQGSVSEILSRPKPWNKLTVRGKEPFHKMKQFLSDEQNILALRSIQGR [A44S], 0.034 ± 0.032; for GEEMDTAEIARQVKEQLIKHNIGQRIFGHYVLGLSQGSVSEILQRPKPWNKLTVRGKEPFHKMKQFLSDEQNILALRSIQGR [A44Q], 0.053 ± 0.038.
For GEEMDTAEIARQVKEQLIKHNIGQRIFGHYVLGLSQGSVSEILDRPKPWNKLTVRGKEPFHKMKQFLSDEQNILALRSIQGR [A44D] the value was 0.056 ± 0.041; for GEEMDTAEIARQVKEQLIKHNIGQRIFGHYVLGLSQGSVSEILTRPKPWNKLTVRGKEPFHKMKQFLSDEQNILALRSIQGR [A44T], 0.057 ± 0.035; for GEEMDTAEIARQVKEQLIKHNIGQRIFGHYVLGLSQGSVSEILKRPKPWNKLTVRGKEPFHKMKQFLSDEQNILALRSIQGR [A44K], -0.094 ± 0.04.
As to GEEMDTAEIARQVKEQLIKHNIGQRIFGHYVLGLSQGSVSEILYRPKPWNKLTVRGKEPFHKMKQFLSDEQNILALRSIQGR [A44Y], the abundance fitness is -0.099 ± 0.056.
Regarding GEEMDTAEIARQVKEQLIKHNIGQRIFGHYVLGLSQGSVSEILERPKPWNKLTVRGKEPFHKMKQFLSDEQNILALRSIQGR [A44E], the abundance fitness turned out to be 0.08 ± 0.03.
Consider GEEMDTAEIARQVKEQLIKHNIGQRIFGHYVLGLSQGSVSEILVRPKPWNKLTVRGKEPFHKMKQFLSDEQNILALRSIQGR [A44V], for which the abundance fitness was -0.137 ± 0.029.
Take GEEMDTAEIARQVKEQLIKHNIGQRIFGHYVLGLSQGSVSEILIRPKPWNKLTVRGKEPFHKMKQFLSDEQNILALRSIQGR [A44I]: the abundance fitness is -0.159 ± 0.055.
For the variant GEEMDTAEIARQVKEQLIKHNIGQRIFGHYVLGLSQGSVSEILRRPKPWNKLTVRGKEPFHKMKQFLSDEQNILALRSIQGR [A44R], the abundance fitness is -0.106 ± 0.026.
Consider GEEMDTAEIARQVKEQLIKHNIGQRIFGHYVLGLSQGSVSEILWRPKPWNKLTVRGKEPFHKMKQFLSDEQNILALRSIQGR [A44W], for which the abundance fitness is -0.176 ± 0.032.
In the case of GEEMDTAEIARQVKEQLIKHNIGQRIFGHYVLGLSQGSVSEILFRPKPWNKLTVRGKEPFHKMKQFLSDEQNILALRSIQGR [A44F], the abundance fitness is -0.082 ± 0.052.
On to GEEMDTAEIARQVKEQLIKHNIGQRIFGHYVLGLSQGSVSEILLRPKPWNKLTVRGKEPFHKMKQFLSDEQNILALRSIQGR [A44L], for which the abundance fitness is -0.027 ± 0.031.
GEEMDTAEIARQVKEQLIKHNIGQRIFGHYVLGLSQGSVSEILMRPKPWNKLTVRGKEPFHKMKQFLSDEQNILALRSIQGR [A44M]: the abundance fitness was 0.047 ± 0.037.
Regarding GEEMDTAEIARQVKEQLIKHNIGQRIFGHYVLGLSQGSVSEILGRPKPWNKLTVRGKEPFHKMKQFLSDEQNILALRSIQGR [A44G], the abundance fitness was -0.038 ± 0.024.
As for GEEMDTAEIARQVKEQLIKHNIGQRIFGHYVLGLSQGSVSEILCRPKPWNKLTVRGKEPFHKMKQFLSDEQNILALRSIQGR [A44C], the figure is -0.134 ± 0.047; as for GEEMDTAEIARQVKEQLIKHNIGQRIFGHYVLGLSQGSVSEILNRPKPWNKLTVRGKEPFHKMKQFLSDEQNILALRSIQGR [A44N], 0.073 ± 0.073; as for GEEMDTAEIARQVKEQLIKHNIGQRIFGHYVLGLSQGSVSEILPRPKPWNKLTVRGKEPFHKMKQFLSDEQNILALRSIQGR [A44P], -0.709 ± 0.06.
As for GEEMDTAEIARQVKEQLIKHNIGQRIFGHYVLGLSQGSVSEALARPKPWNKLTVRGKEPFHKMKQFLSDEQNILALRSIQGR [I42A], the abundance fitness was -0.36 ± 0.034.
For GEEMDTAEIARQVKEQLIKHNIGQRIFGHYVLGLSQGSVSERLARPKPWNKLTVRGKEPFHKMKQFLSDEQNILALRSIQGR [I42R] the value was -1 ± 0.053; for GEEMDTAEIARQVKEQLIKHNIGQRIFGHYVLGLSQGSVSELLARPKPWNKLTVRGKEPFHKMKQFLSDEQNILALRSIQGR [I42L], -0.013 ± 0.031.
With GEEMDTAEIARQVKEQLIKHNIGQRIFGHYVLGLSQGSVSETLARPKPWNKLTVRGKEPFHKMKQFLSDEQNILALRSIQGR [I42T], the abundance fitness is -0.375 ± 0.05.
For GEEMDTAEIARQVKEQLIKHNIGQRIFGHYVLGLSQGSVSEWLARPKPWNKLTVRGKEPFHKMKQFLSDEQNILALRSIQGR [I42W], the abundance fitness is -0.513 ± 0.038.
